The source of these data is publication PMC4006878 (Organic letters, 2013).

This experiment deals with GLP-1R (Homo sapiens, UniProt P43220). Description: cAMP response element luciferase reporter gene assay in GLP-1R+ CHO-K1 cells. The experiment is classed as cell-based. The note with it: 1 μM of the ligand, Figure 3A. (Reporter assays use an easily measured gene product as a stand-in for the process of interest.)
Sequence of GLP-1R (P43220 24-463): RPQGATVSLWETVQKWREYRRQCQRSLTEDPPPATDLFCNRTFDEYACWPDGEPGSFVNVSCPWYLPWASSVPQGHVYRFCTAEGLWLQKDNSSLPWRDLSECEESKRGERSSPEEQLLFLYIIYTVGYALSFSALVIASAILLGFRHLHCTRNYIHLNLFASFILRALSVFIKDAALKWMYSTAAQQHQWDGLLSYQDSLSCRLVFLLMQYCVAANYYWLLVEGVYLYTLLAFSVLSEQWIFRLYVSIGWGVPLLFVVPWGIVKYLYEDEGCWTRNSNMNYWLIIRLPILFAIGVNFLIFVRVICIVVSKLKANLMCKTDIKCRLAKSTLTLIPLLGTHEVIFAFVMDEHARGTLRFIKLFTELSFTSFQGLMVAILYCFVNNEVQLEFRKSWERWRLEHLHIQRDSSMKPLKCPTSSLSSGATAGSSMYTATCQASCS

For “exendin-4_9-39: exendin-4 fragment 9-39 used at 1 μM to inhibit GLP-1R activation”, the “inhibition of GLP-1 agonism at GLP-1R” value is “inhibited”.
